Each block holds one molecule with its values, some of them ahead of it.
T1: mCATCH(-) peptide, Ac-EQEPEPEPEQE-Am
T1 construct: Mutant of CATCH(-) with proline in place of the phenylalanine residues
T1 peptide: Ac-EQEPEPEPEQE-NH2

B1: mCATCH(+) peptide, Ac-QQKPKPKPKQQ-Am (peptide)
peptide: Ac-QQKPKPKPKQQ-NH2
notes: Mutant of CATCH(+) with proline in place of the phenylalanine residues; also called mutant CATCH(4+); mCATCH (4+)
B2: CATCH(-) peptide, Ac-EQEFEFEFEQE-Am (peptide)
peptide: Ac-EQEFEFEFEQE-NH2
notes: Synthetic anionic variant of Q11; also called CATCH (6-); CATCH(6-)
B3: CATCH(+) peptide, Ac-QQKFKFKFKQQ-Am (peptide)
peptide: Ac-QQKFKFKFKQQ-NH2
notes: Synthetic cationic variant of Q11; also called CATCH (4+); CATCH(4+)

Legend:
[1] = target: CATCH(+) peptide, Ac-…-Am; assay: fluorescence microscopy of binary mixtures (FIG. 33A: 0.75 µM CATCH(+))
[2] = target: T1, mCATCH(-) peptide, Ac-EQEPEPEPEQE-Am; assay: ThT fluorimetry, kinetic analysis
[3] = target: B1; assay: ThT fluorimetry, equimolar mixture in 1xPBS
Method: (§1) Thioflavin T (ThT) Assay. A ThT stock solution containing 0.8 mg/mL of thioflavin T (Acros) in 1× phosphate-buffered saline (PBS) (137 mM NaCl, 2.7 mM KCl, 10 mM Na₂HPO₄ and 1.8 mM KH₂PO₄, pH 7.4) was filtered through a 0.22 μm syringe filter (Millex), and further diluted 1:10 with 1×PBS to create a working solution. Peptide samples were mixed with the ThT working solution at a 1:10 (v/v) ratio, added to a black 96-well plate (Corning), and analyzed with a Molecular Devices SpectraMax M3 spectrophotometer (excitation 450, emission 482 nm). All samples were run in triplicate, with the mean and standard deviation of these samples reported.

[4] = target: the molecule itself; assay: ThT fluorimetry, TEM, circular dichroism and fluorescence microscopy of the peptide alone
[5] = target: T1, mCATCH(-) peptide, Ac-EQEPEPEPEQE-Am; assay: ThT fluorimetry, equimolar mixture in 1xPBS
Method: as §1

- concentration below which only diffuse fluorescence (no microparticles) was observed [1]: < 7.5 µM
Molecule: CATCH(-)GFP, recombinant fusion of CATCH(-) and superfolder green fluorescent protein

Molecule: B1
- binding result [2]: no binding

Molecule: B2
- binding result [3]: no binding
- binding result [4]: no binding

Molecule: B3
- binding result [5]: no binding
- binding result [4]: no binding

Source: US20240199696A1, “AGENTS FOR MANUFACTURE OF CO-ASSEMBLING PEPTIDES” (University of Florida Research Foundation, Incorporated, priority 2021, published 2024)
